Results taken from patent US7276481B2, “Method and composition for treatment of skeletal dysplasias” (ProChon Biotech Ltd., priority 2001, dated 2007).
Entries after “also recorded” stand apart in the source; their conditions may differ. Read-outs that look alike come from different tables or passages of the source.

Tests used:
[1] = 125Iodine-labeled GH in blood after IP administration; assay type: in vivo, mice; conditions: 125Iodine-labeled GH IP, one hour after a pulse of unlabelled GH
Description: To determine whether GH can enter the growth plate from the circulation, GH was labeled with ^125Iodine and administered to mice IP, one hour after a pulse of unlabelled GH. Blood samples were collected at several time points and analyzed on a protein gel.

[2] = biological target: T1, natriuretic peptide receptor on C3H10T1/2 cells (Mus musculus, UniProt Q6VVW5); assay: Biotrak enzyme immunoassay of cGMP elicited on C3H10T1/2 cells; assay type: cell-based
T1 construct: endogenous in cells; host or cells: C3H10T1/2 cells
T1 sequence (Q6VVW5 23-1047 limits assumed): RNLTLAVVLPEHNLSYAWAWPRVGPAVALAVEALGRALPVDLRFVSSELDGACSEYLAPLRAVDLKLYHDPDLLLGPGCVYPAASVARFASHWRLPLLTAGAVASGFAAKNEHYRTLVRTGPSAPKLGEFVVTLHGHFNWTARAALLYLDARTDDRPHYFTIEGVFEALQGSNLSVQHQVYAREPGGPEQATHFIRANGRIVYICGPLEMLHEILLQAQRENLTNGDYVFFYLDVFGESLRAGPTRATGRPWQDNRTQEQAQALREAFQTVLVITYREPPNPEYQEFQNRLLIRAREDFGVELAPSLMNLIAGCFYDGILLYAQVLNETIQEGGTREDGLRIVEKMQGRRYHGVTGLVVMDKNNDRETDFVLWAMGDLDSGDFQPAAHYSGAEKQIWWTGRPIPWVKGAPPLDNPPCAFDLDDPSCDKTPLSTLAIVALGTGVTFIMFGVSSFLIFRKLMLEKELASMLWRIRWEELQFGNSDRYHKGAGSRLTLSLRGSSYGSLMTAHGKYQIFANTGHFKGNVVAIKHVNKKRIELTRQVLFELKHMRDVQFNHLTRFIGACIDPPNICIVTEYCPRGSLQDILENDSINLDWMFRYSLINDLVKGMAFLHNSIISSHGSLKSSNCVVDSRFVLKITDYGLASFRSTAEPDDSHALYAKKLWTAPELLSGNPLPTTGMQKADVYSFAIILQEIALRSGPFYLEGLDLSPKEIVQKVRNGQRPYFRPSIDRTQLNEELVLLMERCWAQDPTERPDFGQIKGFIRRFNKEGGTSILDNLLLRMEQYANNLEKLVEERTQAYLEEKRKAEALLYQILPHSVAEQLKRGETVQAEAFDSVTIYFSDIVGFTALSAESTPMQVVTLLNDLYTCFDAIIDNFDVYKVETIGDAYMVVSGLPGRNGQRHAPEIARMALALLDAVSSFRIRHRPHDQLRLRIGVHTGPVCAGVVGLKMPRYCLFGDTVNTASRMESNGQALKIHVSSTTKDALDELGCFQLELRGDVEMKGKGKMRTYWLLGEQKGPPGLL
Experimental: All peptide variants were analyzed for activity using the Biotrak enzyme immunoassay (EIA, Amersham) that measures the amount of secondary messenger, cyclic GMP (cGMP), elicited after activation of the natriuretic peptide receptor by the peptide on C3H10T1/2 cells. Amino acid substitutions are marked in bold and underlined. The assay was performed for CNP and variants at a concentration of 10^−6 M. The values are given as the percent of relative binding compared to CNP, where CNP 1-22 and CNP 5-22 yield 100% binding.

[3] = test system: femora derived from achondroplasia model mice (Ach369, Ach374) and wild type littermates; assay: Ex vivo femoral bone culture; conditions: for bone elongation / longitudinal growth in bone culture (in words): femora of Ach and wild type mice, versus vehicle or untreated; for Growth rate (days 0-3) / Growth rate (days 3-15): CNP treated femora, 40 units=1 mm
Experimental: Femora derived from achondroplasia model mice (Ach369 knock-in mice carry the Gly to Cys mutation at position 369, analogous to position 375 in humans or Ach374 knock-in mice that carry the Gly to Arg mutation at position 374, analogous to position 380 in humans) were dissected from P0 wild type, heterozygote and homozygote littermates and cultured in the presence of natriuretic peptides for 15 days.
Protocol for Bone Culture: Femoral bone cultures were performed by excising the hind limbs of mice. The limbs were carefully cleaned from the surrounding tissue (skin and muscles) and the femora exposed. The femora were removed and further cleared from tissue remains and ligaments. The femora were measured for their initial length, using a binocular with an eyepiece micrometer ruler. The bones were grown in 1 ml of medium (α-MEM supplemented with penicillin (100 units/ml), streptomycin (0.1 mg/ml), nystatin (12.5 units/ml), BSA (0.2%), β-glycerophosphate (1 mM) and freshly prepared ascorbic acid (50 μg/ml)) with varying concentrations of NPs or CNP variants in a 24 well tissue culture dish. The bones were cultured for 15 days while measurements of bone length and medium replacement were performed every three days. At the end of the experiment, the growth rate of the bones was determined. The growth rate of bones is calculated from the slope of a linear regression fit on the length measurements obtained from day 3 to 15. Units given can be converted to length, 40 units=1 mm.

[4] = test system: fetal bone organ culture from wild type (normal) animals; conditions: wild type fetal bones; cited from earlier work
[5] = Table 3, cGMP values at 10^-6 M, compared to CNP (CNP 1-22 and CNP 5-22 = 100%)
[6] = Table 2, cGMP assay, compared to CNP

Row | cGMP response as percent of CNP [2, 5] [%] | Substance | other results
1 | 88.117 | C F G L K I D R I G S M S G L G C (CFGLKIDRIGSMSGLGC; peptide variant) [SEQ ID NO:46] | –
2 | 11.953 | C F G L K L D Q I G S M S G L G C (CFGLKLDQIGSMSGLGC; peptide variant) [SEQ ID NO:50] | –
3 | 62.531 | C F G L K L D R I G S S S G L G C (CFGLKLDRIGSSSGLGC; peptide variant) [SEQ ID NO:68] | –
4 | 100 | C-type natriuretic peptide [CNP] | induction of bone elongation (rank order) [4]: more than BNP and much more than ANP; Growth rate (days 0-3) ([3]; +/+ wild type (wt)): 0.25 mm/day; Growth rate (days 3-15) ([3]; +/+ wild type (wt)): 0.143 mm/day; Growth rate (days 0-3) ([3]; Ach/+ heterozygote): 0.228 mm/day; Growth rate (days 3-15) ([3]; Ach/+ heterozygote): 0.085 mm/day; Growth rate (days 0-3) ([3]; Ach/Ach homozygote): 0.177 mm/day; Growth rate (days 3-15) ([3]; Ach/Ach homozygote): 0.07 mm/day; bone elongation / longitudinal growth in bone culture (in words) [3]: increased the total longitudinal growth of femora; also recorded: increased in size at a rate higher than that of the untreated limbs
5 | 49.202 | C F G L K L D R I G S M S K L G C (CFGLKLDRIGSMSKLGC; peptide variant) [SEQ ID NO:60] | –
6 | 66.714 | C F G L K V D R I G S M S G L G C (CFGLKVDRIGSMSGLGC; peptide variant) [SEQ ID NO:47] | –
7 | 66.910 | C F G L K L D R I G S K S G L G C (CFGLKLDRIGSKSGLGC; peptide variant) [SEQ ID NO:67] | –
8 | 20.154 | C F G A K L D R I G S M S G L G C (CFGAKLDRIGSMSGLGC; peptide variant) [SEQ ID NO:40] | –
9 | −9.108 | C T G L K L D R I G S A S G L G C (CTGLKLDRIGSASGLGC; peptide variant) [SEQ ID NO:71] | –

Second part, the substance before the results:

Row | Substance | cGMP response as percent of CNP [2, 5] [%] | other results
10 | GH: growth hormone labeled with 125Iodine and administered to mice IP | – | labeling of blood samples on a protein gel over time [1]: increases in the first 2-3 hours, can still be observed at 6 hours and almost disappears at 24 hrs
11 | C F G L K L D R I G T M S G L G C (CFGLKLDRIGTMSGLGC; peptide variant) [SEQ ID NO:56] | 74.080 | –
12 | C F G L K L D R I G S G S G L G C (CFGLKLDRIGSGSGLGC; peptide variant) [SEQ ID NO:69] | 62.117 | –
13 | C F G L K L D R I G S M S G M G C (CFGLKLDRIGSMSGMGC; peptide variant) [SEQ ID NO:62] | 51.286 | –
14 | C F G L K L D R I G S M - - - - C (CFGLKLDRIGSMC; peptide variant) [SEQ ID NO:16] | – | cGMP response as percent of CNP [2, 6]: 17.3%
15 | C F G L K L D R I G S M S L L G C (CFGLKLDRIGSMSLLGC; peptide variant) [SEQ ID NO:59] | 15.289 | –
16 | C A G L K L A R I G S M S G L G C (CAGLKLARIGSMSGLGC; peptide variant) [SEQ ID NO:24] | −5.848 | –
17 | C F G L K L D R I G S M S A L G C (CFGLKLDRIGSMSALGC; peptide variant) [SEQ ID NO:58] | 53.649 | –
18 | C F G L K L D R V G S M S G L G C (CFGLKLDRVGSMSGLGC; peptide variant) [SEQ ID NO:52] | 27.103 | –
19 | C F G L K L D R I G S W S G L G C (CFGLKLDRIGSWSGLGC; peptide variant) [SEQ ID NO:65] | 66.450 | –
20 | C L G L K L D R I G S M S G L G C (CLGLKLDRIGSMSGLGC; peptide variant) [SEQ ID NO:29] | 6.255 | –
21 | C F G L K L D R I G S A S G L G C (CFGLKLDRIGSASGLGC; peptide variant) [SEQ ID NO:10] | – | activity in cGMP assay (in words) [2]: increases activity; cGMP response as percent of CNP [2, 6]: 138.1%; activity in cGMP assay (in words) ([2]; listed as SEQ ID NO: 10): retains high activity; bone elongation / longitudinal growth in bone culture (in words) [3]: induced elongation of Ach369 femora even at a concentration similar to that of CNP
22 | C H F G L K L D R I G S M A - - C (CHFGLKLDRIGSMAC; peptide variant) [SEQ ID NO:12] | – | cGMP response as percent of CNP [2, 6]: 21.7%
23 | C I G L K L D R I G S M S G L G C (CIGLKLDRIGSMSGLGC; peptide variant) [SEQ ID NO:28] | 13.899 | –
24 | C F G L K L D R A G S M S G L G C (CFGLKLDRAGSMSGLGC; peptide variant) [SEQ ID NO:9] | – | cGMP response as percent of CNP [2, 6]: 11.5%
25 | C F G L K L D A I G S M S G L G C (CFGLKLDAIGSMSGLGC; peptide variant) [SEQ ID NO:8] | – | cGMP response as percent of CNP [2, 6]: 18.4%
26 | C F G L K L D R I G A M S G L G C (CFGLKLDRIGAMSGLGC; peptide variant) [SEQ ID NO:54] | 54.469 | –
